For one substance, Kd results are on record in publication PMC7350312.

For this experiment, the target named is HIV-1 CRF07_BC gp120 recombinant protein (HIV-1 CRF07_BC). Nature of the experiment: SPR; format not shown (protocol in the supplement). In general terms: In SPR one partner is held on a chip, and binding of the other changes the refractive index at the surface.

Broadly, the Kd is the concentration at which binding is half-saturated. For “recombinant human galectin-3 (from UniProt P17931 1-250)”, the Kd came to 7 nM.
